The values that follow come from patent publication US20040106557A1.

Ends that are not written are not given here.

Test [1] deals with Prostate specific antigen (PSA), purified from human seminal fluid (human) (UniProt P07288). In words: inhibition IFMA: 200 µl fraction preincubated with PSA captured by MAb 5E4, then GST-C4 (167 nM); competitor GST-C-4.
Test [2] deals with PSA-alpha-2-macroglobulin complex (PSA-A2M), purified (human) (UniProt P07288). In words: cell-based or functional assay.

Take CVAYCIEHHCWTC (peptide, part only; not given: vector flanking residues, part only) [peptide cleaved from GST-C-4 by thrombin (about 3 kD, estimated 31 residues)]: the reduction of the binding of GST-peptide to PSA (%) in test [1] worked out at 30%.

B1: chemically synthesized peptide C-4 with GA flanks (…) (peptide)
peptide: GACVAYCIEHHCWTCGA
modifications: disulfide (positions not given here); not fully specified (bridges); also: cyclic, disulphide bonds between cysteines, pairing of the four Cys not given here
For the molecule B1, the enzyme activity of A2M-complexed PSA (S-2586, OD 405 nm), 50-fold molar excess of peptide in test [2] is 2 fold.
